From PMC11092324 come the findings set out here.

For the assay, the target named is CV-1A1 Fv-clasp (UniProt Q13043). Briefly: ELISA; sandwich ELISA: CV-1A1 Fv-clasp or scFv (0.7 µM in 50 mM carbonate buffer pH 9.6) coated on high-binding microplates, VLPs added in twofold serial dilutions, 37°C 2 h, detected with rabbit anti-VLP antisera; data fit to the Michaelis-Menten equation, Km taken as Kd (affinity or avidity); concentration counted as VP1. In general terms: In an ELISA, binding on a coated surface is turned into a signal by an enzyme label.

“GI.4 Chiba virus-like particles (VP1 major capsid protein of the norovirus GI.4 Chiba strain) (complex)” had a Kd of 3.77 nM.
